The text below walks through data of patent US20230227838A1, “ENHANCED CELL SURVIVAL AGAINST BIOTIC AND ABIOTIC STRESSES THROUGH SALICYLICK ACID-INDUCED NPR1 CONDENSATES” (priority 2020, published 2023).

B1: PDIL2-2, PDI-like 2-2 (protein, UniProt Q9MAU6 27-447, looked up)
Protein disulfide-isomerase like 2-2: LYGSSSPVLQLTPSNFKSKVLNSNGVVLVEFFAPWCGHCQSLTPTWEKVASTLKGIATVAAIDADAHKSVSQDYGVRGFPTIKVFVPGKPPIDYQGARDAKSISQFAIKQIKALLKDRLDGKTSGTKNGGGSSEKKKSEPSASVELNSSNFDELVTESKELWIVEFFAPWCGHCKKLAPEWKKAANNLKGKVKLGHVNCDAEQSIKSRFKVQGFPTILVFGSDKSSPVPYEGARSASAIESFALEQLESNAGPAEVTELTGPDVMEDKCGSAAICFVSFLPDILDSKAEGRNKYLEMLLSVADKFKKDPYGFVWVAAGKQPDLEKRVGVGGYGYPAMVALNAKKGAYAPLKSGFEVKHLKDFVKEAAKGGKGNLPIDGTMEIVKTEAWDGKDGEVVDADEFSLEDLMGNDDEASTESKDDL
B2: VLN2, villin 2 (protein, UniProt O81644 1-976, looked up)
Villin-2: MSTKVLDPAFQGAGQKPGTEIWRIENFEAVPVPKSEHGKFYMGDTYIVLQTTQNKGGAYLFDIHFWIGKDTSQDEAGTAAVKTVELDAVLGGRAVQHREIQGHESDKFLSYFKPCIIPLEGGVASGFKTVEEEVFETRLYTCKGKRAIRLKQVPFARSSLNHDDVFILDTEEKIYQFNGANSNIQERAKALEVVQYLKDKYHEGTCDVAIVDDGKLDTESDSGAFWVLFGGFAPIGRKVANDDDIVPESTPPKLYCITDGKMEPIDGDLSKSMLENTKCYLLDCGAEIYIWVGRVTQVDERKAASQSAEEFLASENRPKATHVTRVIQGYESHSFKSNFDSWPSGSATPGNEEGRGKVAALLKQQGVGLKGIAKSAPVNEDIPPLLESGGKLEVWYVNGKVKTPLPKEDIGKLYSGDCYLVLYTYHSGERKDEYFLSCWFGKKSIPEDQDTAIRLANTMSNSLKGRPVQGRIYEGKEPPQFVALFQPMVVLKGGLSSGYKSSMGESESTDETYTPESIALVQVSGTGVHNNKAVQVETVATSLNSYECFLLQSGTSMFLWHGNQSTHEQLELATKVAEFLKPGITLKHAKEGTESSTFWFALGGKQNFTSKKASSETIRDPHLFSFAFNRGKFQVEEIYNFAQDDLLTEDIYFLDTHAEVFVWVGQCVEPKEKQTVFEIGQKYIDLAGSLEGLHPKVPIYKINEGNEPCFFTTYFSWDATKAIVQGNSFQKKASLLFGTHHVVEDKSNGGNQGLRQRAEALAALNSAFNSSSNRPAYSSQDRLNESHDGPRQRAEALAALSSAFNSSSSSTKSPPPPRPVGTSQASQRAAAVAALSQVLVAENKKSPDTSPTRRSTSSNPADDIPLTEAKDEEEASEVAGLEAKEEEEVSPAADETEAKQETEEQGDSEIQPSGATFTYEQLRAKSENPVTGIDFKRREAYLSEEEFQSVFGIEKEAFNNLPRWKQDLLKKKFDLF
B3: UBP24, ubiquitin-specific protease 24 (protein, UniProt Q9FPS3 1-551, looked up)
Ubiquitin carboxyl-terminal hydrolase 24: MSEKKVFVFGSFTEHETRSFFEQKPTKDPQNSKDKCVGSIQFGSLNLAAENSSVNTNGELKKGEADGTVKSAGSQERLDASRPASSDKNNDSDAKLPRKNSLRVPEHVVQNGIIKEISESNKSLNNGVAVKTDPIGLDNLSMSDGESDPVYKASSSKFQALDNEDFSSDSSSGSIQRKKNLKVPTESVPPVKDFTPRGLINAGNLCFLNATLQALLSCSPFVQLLQKIQLQDIPKADSPTLAAFSEFISELDVPSSSSIRNNVTVVEAGRPFRPAMFEGVLRNFTPDVLNNMSGRPRQEDAQEFLSFIMDQMHDELLKLKEQSPKVTASKSSVISSANDDGDEWETVGPKNKSAVTRTQSFVPSELSEIFGGQLKSVVKAKGTKASATVQPYLLLHLDIHPDGVQGIEDALHLFSAQEDLEGYRASVTGKTGVVSASKSIKIQKLSKIMILHLMRFSYGSQGSTKLRKGVKFPLELNLNRSHLVSLSNESLRYELVATITHHGWDPSKGHYTTDARRKNGQWLRFDDASVTPIGTKLVLHDQAYVLFYKQV
B4: GRF6, G-box regulating factor 6 (protein, UniProt P48349 1-248, looked up)
14-3-3-like protein G-BOX factor 14 lambda: MAATLGRDQYVYMAKLAEQAERYEEMVQFMEQLVTGATPAEELTVEERNLLSVAYKNVIGSLRAAWRIVSSIEQKEESRKNDEHVSLVKDYRSKVESELSSVCSGILKLLDSHLIPSAGASESKVFYLKMKGDYHRYMAEFKSGDERKTAAEDTMLAYKAAQDIAAADMAPTHPIRLGLALNFSVFYYEILNSSDKACNMAKQAFEEAIAELDTLGEESYKDSTLIMQLLRDNLTLWTSDMQEQMDEA
B5: ADL3, CF1, DL3, DRP2B, dynamin-like 3 (protein, UniProt Q9LQ55 1-920, looked up)
Dynamin-2B: MEAIDELSQLSDSMRQAASLLADEDPDETSSSRRPATSLNVVALGNVGAGKSAVLNSLIGHPVLPTGENGATRAPIIIDLSREESLSSKAIILQIDNKNQQVSASALRHSLQDRLSKGASGRGRDEIYLKLRTSTAPPLKLIDLPGLDQRIVDDSMIGEHAQHNDAILLVVVPASQASEISSSRALKIAKEYDPESTRTVGIISKIDQAAENPKSLAAVQALLSNQGPPKTTDIPWVALIGQSVSIASAQSGGSENSLETAWRAESESLKSILTGAPQSKLGRIALVDTLASQIRSRMKLRLPNILTGLQGKSQIVQDELARLGEQLVSSAEGTRAIALELCREFEDKFLLHLAGGEGSGWKVVASFEGNFPNRIKKLPLDRHFDLNNVKRIVLEADGYQPYLISPEKGLRSLIKTVLELAKDPARLCVDEVHRVLVDIVSASANATPGLGRYPPFKREVVAIASAALDGFKNEAKKMVVALVDMERAFVPPQHFIRLVQRRMERQRREEELKGRSSKKGQDAEQSLLNRATSPQPDGPSSTGGSLKSLRDKLMPQDKDKDKEKETPEVSGLKTAGPEGEITAGYLMKKSAKTNGWSRRWFVLNEKTGKLGYTKKQEERNFRGTVTLEECSIEEISDDEGEKSKSSKDKKSNGPDSKGPGLVFKITCRVPYKTVLKAHNALVLKAESMVDKNEWINKLQKVIQARGGQVGSASMRQSLSEGSLDKMVRKPVDPEEELRWMSQEVRGYVEAVLNSLAANVPKAVVLCQVEKSKEDMLNQLYSSISAIGNERIESLIQEDQNVKRRRDRYQKQSSLLSKLTRQLSIHDNRAAAASSWSDNSGTESSPRTNGGSSGEDWMNAFNAAASGPDSLKRYGSGGHSRRYSDPAQNGEDSSGSGGSSRRTTPNRLPPAPPQSGSSYRY
B6: FPA, RNA binding (protein, UniProt Q8LPQ9 1-901, looked up)
Flowering time control protein FPA: MALSMKPFRADDSGFQSNNLWVGSLTPETTESDLTELFGRYGDIDRITVYSSRGFAFIYYRHVEEAVAAKEALQGANLNGSQIKIEYARPAKPCKSLWVGGIGPNVSKDDLEEEFSKFGKIEDFRFLRERKTAFIDYYEMDDALQAKSMNGKPMGGSFLRVDFLRSQAPKKEQWAGSYDNRNGNMNHKPQYPHSYEDFKGDVQPSKVLWIGFPPTATQCNDEQILHNAMILFGEIERVKSYPSRNFALVEFRSAEEARQCKEGLQGRLFNNPRIKIMYSNDELPPEQDDTSFYSGMKRSRTDMFNNDPSFVSSPHSTGIPGSMRPLRGTNERSYNGAEYNDVVGKEPNWRRPSANGTGILPSPTGPGILPSPAQGTRRPMRSNPDSWEGYDPAQLVRESKRTRRDGSVDGFTPMGVDERSFGRGSVAARPIRGPPDSDHIWRGMIAKGGTPVCCARCVPMGKGIETKLPEVVNCSARTDLNMLAKHYAVAIGCEIVFFVPDREEDFASYTEFLRYLSSKDRAGVAKLDDGTTLFLVPPSDFLTDVLQVTRQERLYGVVLKLPPPAVPVTASYRQESQSNPLHYMDQARDSPANASHSLYPPRENYIRGAPEHLTAASKPSVSEPLRIPNNAAPQAGVSLTPELLATLASILPATSQPAAPESHQPMSGPSTVVSTAHQSNGLYNGEAPSQAWKRGPQTVHDASNQSFQQYGNQYTPAGQLPPPPSRYPPASNNPNYTSGMVHGNMQYQSQSVNMPQLSPLPNMPHNNYSMYTQGSSNHPVSQPMVQQYQPEASMPNQNYGPIPSYQQANFHGVTTNQAQNLNPSQFQAAMQPPADKANLEPQNQALRLQPMISGDGQGTTDGEVDKNQRYQSTLQFAANLLLQIQQKQQQQSSGTPAGQGP
B7: PCS1, phytochelatin synthase 1 (PCS1) (protein, UniProt Q9S7Z3 1-485, looked up)
Glutathione gamma-glutamylcysteinyltransferase 1: MAMASLYRRSLPSPPAIDFSSAEGKLIFNEALQKGTMEGFFRLISYFQTQSEPAYCGLASLSVVLNALSIDPGRKWKGPWRWFDESMLDCCEPLEVVKEKGISFGKVVCLAHCSGAKVEAFRTSQSTIDDFRKFVVKCTSSENCHMISTYHRGVFKQTGTGHFSPIGGYNAERDMALILDVARFKYPPHWVPLKLLWEAMDSIDQSTGKRRGFMLISRPHREPGLLYTLSCKDESWIEIAKYLKEDVPRLVSSQHVDSVEKIISVVFKSLPSNFNQFIRWVAEIRITEDSNQNLSAEEKSRLKLKQLVLKEVHETELFKHINKFLSTVGYEDSLTYAAAKACCQGAEILSGSPSKEFCCRETCVKCIKGPDDSEGTVVTGVVVRDGNEQKVDLLVPSTQTECECGPEATYPAGNDVFTALLLALPPQTWSGIKDQALMHEMKQLISMASLPTLLQEEVLHLRRQLQLLKRCQENKEEDDLAAPAY
B8: SINAT2, seven in absentia of Arabidopsis 2 (protein, UniProt Q9M2P4 1-308, looked up)
E3 ubiquitin-protein ligase SINAT2: MAPGGSALKEVMESNSTGMDYEVKTAKVEVNNNKPTKPGSAGIGKYGIHSNNGVYELLECPVCTNLMYPPIHQCPNGHTLCSNCKLRVQNTCPTCRYELGNIRCLALEKVAESLEVPCRYQNLGCHDIFPYYSKLKHEQHCRFRPYTCPYAGSECSVTGDIPTLVVHLKDDHKVDMHDGCTFNHRYVKSNPHEVENATWMLTVFNCFGRQFCLHFEAFQLGMAPVYMAFLRFMGDENEAKKFSYSLEVGAHGRKLTWQGIPRSIRDSHRKVRDSQDGLIIPRNLALYFSGGDRQELKLRVTGRIWKEE
B9: RH39 (protein, UniProt Q56X76 1-621, looked up)
DEAD-box ATP-dependent RNA helicase 39: MVGASRTILSLSLSSSLFTFSKIPHVFPFLRLHKPRFHHAFRPLYSAAATTSSPTTETNVTDPDQLKHTILLERLRLRHLKESAKPPQQRPSSVVGVEEESSIRKKSKKLVENFQELGLSEEVMGALQELNIEVPTEIQCIGIPAVMERKSVVLGSHTGSGKTLAYLLPIVQLMREDEANLGKKTKPRRPRTVVLCPTRELSEQVYRVAKSISHHARFRSILVSGGSRIRPQEDSLNNAIDMVVGTPGRILQHIEEGNMVYGDIAYLVLDEADTMFDRGFGPEIRKFLAPLNQRALKTNDQGFQTVLVTATMTMAVQKLVDEEFQGIEHLRTSTLHKKIANARHDFIKLSGGEDKLEALLQVLEPSLAKGSKVMVFCNTLNSSRAVDHYLSENQISTVNYHGEVPAEQRVENLKKFKDEEGDCPTLVCTDLAARGLDLDVDHVVMFDFPKNSIDYLHRTGRTARMGAKGKVTSLVSRKDQMLAARIEEAMRNNESLESLTTDNVRRDAARTHITQEKGRSVKQIREVSKQRNSRDKPSSSSPPARSTGGKTPVRKSSSSSFSKPRKASSPPEKSSKPKRKILKTVGSRSIAARGKTGSDRRPGKKLSVVGFRGKSSSARAS
B10: NTF2B, nuclear transport factor 2B (protein, UniProt Q9C7F5 2-126, looked up)
Nuclear transport factor 2B: SQMDPDAVSKAFVEHYYSTFDTNRVGLAGLYQEASMLTFEGQKIQGVQSIVAKLTSLPFQQCKHHISTVDCQPSGPASGMLVFVSGNLQLAGEEHALKFSQMFHLMPTPQGSFYVFNDIFRLNYA

sim3-GFP (Arabidopsis thaliana), sequence (P93002 other isoform, or with tags, fused parts or gaps): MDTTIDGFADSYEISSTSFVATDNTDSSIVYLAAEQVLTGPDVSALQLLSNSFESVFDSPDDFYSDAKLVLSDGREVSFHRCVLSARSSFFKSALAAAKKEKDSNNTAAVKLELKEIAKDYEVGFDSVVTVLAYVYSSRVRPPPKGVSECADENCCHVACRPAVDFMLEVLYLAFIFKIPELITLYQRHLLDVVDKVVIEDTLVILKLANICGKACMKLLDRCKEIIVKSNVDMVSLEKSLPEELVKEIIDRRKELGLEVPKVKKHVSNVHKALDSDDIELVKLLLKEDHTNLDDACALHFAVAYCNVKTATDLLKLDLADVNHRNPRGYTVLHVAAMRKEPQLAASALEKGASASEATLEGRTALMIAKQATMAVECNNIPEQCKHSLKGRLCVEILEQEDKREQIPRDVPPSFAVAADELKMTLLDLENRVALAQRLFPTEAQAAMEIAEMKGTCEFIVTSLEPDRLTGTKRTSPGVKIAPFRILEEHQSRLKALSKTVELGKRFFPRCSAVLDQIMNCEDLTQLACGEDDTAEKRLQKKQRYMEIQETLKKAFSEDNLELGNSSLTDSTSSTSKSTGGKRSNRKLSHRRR

The assay has as its target sim3-GFP (Arabidopsis thaliana) (UniProt P93002). Description: sim3-GFP IP, LC-MS/MS.
The molecule B1 yielded a Normalized Fold Change: SA vs Mock of 2.2 fold.

Turning to B2, the Normalized Fold Change: SA vs Mock came to 3.54 fold.

B3 displayed a Normalized Fold Change: SA vs Mock of 2580 fold.

B4 showed a Normalized Fold Change: SA vs Mock of 2.01 fold.

As to B5, the Normalized Fold Change: SA vs Mock was 2.5 fold.

B6: the Normalized Fold Change: SA vs Mock was 4.87 fold.

B7 yielded a Normalized Fold Change: SA vs Mock of 3.43 fold.

The molecule B8 came in with a Normalized Fold Change: SA vs Mock of 2.99 fold.

In the case of B9, the Normalized Fold Change: SA vs Mock came to 46.9 fold.

The molecule B10 came in with a Normalized Fold Change: SA vs Mock of 11.2 fold.
